Measurements as given in the supplement of paper PMC9170038.

Key:
MS2 coat protein [1] = test: apparent KD of MS2 coat protein, switch ON state; designed switch direction (-1 OFF switch, 1 ON switch): -1; higher = weaker reporter binding; settings: FMN input: 0 or 200 uM; Eterna round: R93 (includes R88 designs)
Method in brief: (§1)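 Apparent KD is reported per design as the median of normalised binding-curve fits across its clusters. The RNA switches were made by on-chip transcription from Illumina sequencing clusters. SNAP-549-labelled MS2 coat protein was then added in twofold steps (0.7 or 1.5 nM to 3 µM; 0.8–1.5 h to 10–20 min per step) in 100 mM Tris-HCl pH 7.5, 80 mM KCl, 4 mM MgCl2, without or with constant ligand.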

MS2 coat protein [2] = test: apparent KD of MS2 coat protein, switch OFF state (with FMN for OFF switches, without FMN for ON switches); designed switch direction (-1 OFF switch, 1 ON switch): -1; higher = weaker reporter binding; settings: FMN input: 0 or 200 uM; Eterna round: R93 (includes R88 designs)
Method in brief: as §1

Sequence	apparent KD of MS2 coat protein (MS2 coat protein [1]) [nM]	apparent KD of MS2 coat protein (MS2 coat protein [2]) [nM]
AGCAAGUUAGGAUAUGCGAAGUCAGGACACACACUGACAAAGCAGAAGGAACAUGAGGAUCACCCAUGUAAGCA [Mat - Exaclusion 4 - Eli mod - D64]	29.9	20.8
AGCACGUCAGGAUAUACGAACACAAAGGGUAACAACAAGGGACAUGAGGAUCACCCAUGUAGAAGGGACUAGCA [Diamond 96]	58.2	61.9
AGCAGUACAGGAUAUACAUGAGGAUCACCCAUGUGAAAAUAAAGUGGCGUACCACAAAGUAGAAGGGUACUGCA [Mat - Exclusion 3 - JL mod - D31]	34.2	104
AGCUAGCGAGGAUAUGCGAACAUGUCAAAAGACGUGAAGGGACAUGAGGAUCACCCAUGUAGAAGGCGCUAGCA [JL 74% mod 4]	24.7	29.6
AGCUAGCUAGGAUAUACGAACAUGUCAAAAGACGUGAAGGGACAUGAGGAUCACCCAUGUAGAAGGAGCUAGCA [JL 74% mod 6]	28.7	121
AGCUAGUCAGGAUAUACAAAAAUGACAGAAGACGUAAGGGAACAUGAGGAUCACCCAUGUAGAAGGGACUAGCA [Diamond 43]	61.5	184
AGCUAGUCAGGAUAUACAUAAAAAAAAAAAAAAAGUGAUAAACAUGAGGAUCACCCAUGUAGAAGGGACUAGCA [Similarities v.4.2 (34 mutated to A)]	29	48.3
AGCUAGUCAGGAUAUACGAACAUGUAAAAAGACGUGAAGGGACAUGAGGAUCACCCAUGUAGAAGGGACUAGCA [74%, Web mod - With 1 less C's]	33.9	108
AGCUAGUCAGGAUAUGCAUGAAUGUCAAAAGACGUAAAGGGACAUGAGGAUCACCCAUGUAGAAGGGACUAGCA [JL In the Red 4?]	120	277
AGCUAGUGAGGAUAUACAAGAAUAUAAACAAAAAUGAAGGGACAUGAGGAUCACCCAUGUAGAAGGCACUAGCA [Diamond 72]	55.2	221
AGCUAGUGAGGAUAUACGAACAUGUCAAAAGACUGUAAGGGACAUGAGGAUCACCCAUGUAGAAGGCACUAGCA [Diamond 55]	55.7	294
AGCUGGUUAGGAUAUACAUGAGGAUCACCCAUGUUAAAAAAAAAAAAAAGAUUAAAGUGUAGAAGGGAUUAGUA [Banishment 9 - Jieux - Exclusion 3]	29.3	34.4
AGGAAACAUGAGGAUCACCCAUGUUAGGAUAUGAACGAAAUAAAAUAAAAAUAAAAGUUCAGAAGGAACAAAAA [Mat - Exclusion 1 - Eli mod - D19]	28.2	41.3
AGGAACCUAGGAUAUACAUGAGGAUCACCCAUGUCACGAGUCAAACACAGGUAUCCUAGUAGAAGGAGGAACAC [Inlaveor]	22	42.1
AGGGAACAUGAGGAUCACCCAUGUGAGGAUAUAGAAAAGAAAAGAAAAGAAAGAAGAACUAGAAGGUACAAGAA [Merenre Nemtyemsaf I]	26.1	30
AGGGAGUAAGGAUAUCGGAAAGGACACGAAAGUGACAAAGACGAGAAGGUACAUGAGGAUCACCCAUGUAAAAA [milkweed 24]	32.2	21.6
AGGGAGUGAGGAUAUGCGAAAGAAAAAGAAAAAAAAAAAAAGCAGAAGGUACAUGAGGAUCACCCAUGUAAAAA [milkweed 6]	29.8	29.1
AGGGUACAUGAGGAUCACCCAUGUUAGGAUAUAGAAAAGAAAAGAAAAGAAAGAAGAACUAGAAGGGACAAGAA [Unas]	34.8	41.3
AGUCAGAGAGGAUAUACAUGAAAAAAAAAAGUAAGAUCCCUACAUGAGGAUCACCCAUGUAGAAGGCUCUGACA [Ex2 Design 137: Sub-opt 1]	60.5	26.8
AGUCAUACAGGAUAUACAUGAGGAUCACCCAUGUAAAUCCUAAAAAGAAAAAAAUCAUGUAGAAGGGUAUGACA [EX3 224: Super Stable 24]	13	17.2

Sequence	apparent KD of MS2 coat protein (MS2 coat protein [1]) [nM]	apparent KD of MS2 coat protein (MS2 coat protein [2]) [nM]
AGUCUGAGAGGAUAUACAUAGGAAAAAAAAGUAAGAUCCCUACAUGAGGAUCACCCAUGUAGAAGGCUCUGACA [Ex2 Design 142: Sub-opt 6]	46.9	67.7
AGUGAGUGAGGAUAUCCCUGAAGAAUAAAAGAAAUAACGAGGGAGAAGGCACAUGAGGAUCACCCAUGUACACA [May 64]	30.6	24.8
AGUUGGCGAGGAUAUACAUGAGGAUCACCCAUGUGAGAGAUAAAAGUGAGAAAGAAAAGUAGAAGGCGCUCACA [JL Lego Mod 15]	107	60.1
AGUUGGCGAGGAUAUACAUGAGGAUCACCCAUGUGAGAGUAAAAAGUGAGAAAGAAAAGUAGAAGGCGCUCACA [JL Lego Mod 14]	77.5	46.3
AUAAAACAUGAGGAUCACCCAUGUGAGGAUAUGCGAAAUAAUGAAUAAAGAAAUAAAAGCAGAAGGCACAAAAA [LROPPY Exclusion 1 - v05_deltaG=1.64 break up some As mixed]	32.8	28.9
AUAAAGACAGGAUAUACAUGAGGAUCACCCAUGUAAAAAAAAAAAUGAUCCUCAAAAAGUAGAAGGGUCAAUAA [JR_Exc003_Sub015]	78.7	155
AUAGGCCUAGGAUAUACAUGAGGAUCACCCAUGUAAACCGAUAGAUCACGGUAAACGAGUAGAAGGAGGAAUAA [JR_Exc003_Sub208]	26.5	30.3
AUGUACCUAGGAUAUACAUGAGGAUCACCCAUGUAUUGGGAGCAAUCAAGUUAAUAUUGUAGAAGGAGGUGAAA [JR_Exc003_Sub316]	25.7	67.9
CAAAGGUGAGGAUAUACAAGGAUAUGACGAAAGUCAUAAAAACAUGAGGAUCACCCAUGUAGAAGGCACCACAA [E2 64% 4]	33.9	43.7
CAAAGGUGAGGAUAUGCAUAACUAUGACGAAAGUCAUAAACACAUGAGGAUCACCCAUGUAGAAGGCGCCACAA [e2-3]	78.8	57.2
CAGUACUGAGGAUAUACAUGAGGAUCACCCAUGUGUAAAAGCUAGGAAACUAGCACAUGUAGAAGGCAGUACUG [Ex3: 815]	48.3	230
CAGUACUGAGGAUAUACAUGAGGAUCACCCAUGUGUUAAAGCUAGGAAACUAGCAAAUGUAGAAGGCAGUACUG [Ex3: 817]	14	47.9
CAUUCACAUGAGGAUCACCCAUGUAAGGAUAUCGAAAUAUAACUAAUCAAUAAACAAACGAGAAGGUACAAAAA [Exclusion 1 design 10]	33.7	23.8
CCUAUGUCAGGAUAUCAGUAGUAAAAAAAAAAAAUUACUACUGAGAAGGGACAUGAGGAUCACCCAUGUACCUU [EX4 310: Super Stable 10]	25.5	17.8
CGUUGGCGAGGAUAUACAUGAGGAUCACCCAUGUGAGAGAAAAAAGUGAGAAAGAAAAGUAGAAGGCGCUGACA [salish99-ex3-11]	45.3	264
CUCAAGUGAGGAUAUACAAAAAGUAAAUAAGUAAAACAAAAGUAGAAGGCACAUGAGGAUCACCCAUGUAAAUA [JR_Exc004_Sub301]	45.5	63.1
CUCAAGUUAGGAUAUGUAAGAAAAGAAGAGAAAGAAAAGAAACAGAAGGAACAUGAGGAUCACCCAUGUAAGAA [EteRNA is fun!]	22.1	24.1
CUCAUGUCAGGAUAUCAGUAGUAAAAAAAAAAAAUUACUACUGAGAAGGGACAUGAGGAUCACCCAUGUCCCAA [EX4 305: Super Stable 5]	30.7	36.3
CUCAUGUGAGGAUAUGUACGAAAAAAUAAAAAAAUAAAAGUACAGAAGGCACAUGAGGAUCACCCAUGUGAAAA [EX4 398: Minimal 11]	42.5	24.3
CUCAUGUUAGGAUAUUUAUGAAAUGAAGUGAAAGAAAAGAAAAAGAAGGAACAUGAGGAUCACCCAUGUUAGAA [EteRNA is fun!]	65.2	35.4
